Experimental data as given in paper PMC11721787 (Science translational medicine, 2023).

Target: ANDV Gn^H/Gc (Andes virus; strain , Q9E006 …, UniProt Q9E006)
Experiment: BLI

Binder	half-life (t1/2) of the complex at pH 5.5	fold reduction of dissociation at acidic pH against ADI-42898
ADI-42898 (monoclonal antibody, IgG) (antibody, V domains shown) VH: QVQLVESGGGVVQPGRSLRLSCAASGFTFSSYAMHWVRQAPGKGLEWVAVTWFDVSKKDYADSVKGRFTISRDNSKNTLYLQMNSLRAEDTAVYYCARNLIRYSGSYFPVHGMDVWGQGTTVTVSS VL: DIVMTQSPLSLPVTPGEPASISCRSSQSLLHTYGYNCLDWYLQRPGQSPQLLISLGSYRASGVPDRFSGSGSGTDFTLKISRVEAEDVGVYYCMQALHPFTFGGGTKVEIK	519 s	–
ADI-65534 (antibody, V domains shown) VH: QVQLVESGGGVVQPGRSLRLSCAASGFEFSSYAMHWVRQAPGKGLEWVAVTWFDVSKKDYADSVKGRFTISRDNSKNTLYLQMNSLRAEDTAVYYCARNLIRYSVSYFPVHGMDVWGQGTTVTVSS VL: DIVMTQSPLSLPVTPGEPASISCRSSQSLLHTYGYNVLDWYLQRPGQSPQLLISLGSYRASGVPDRFSGSGSGTDFTLKISRVEAEDVGVYYCMQALHPFTFGGGTKVEIK	–	10 fold
ADI-65533 (antibody, V domains shown) VH: QVQLVESGGGVVQPGRSLRLSCAASGFTFSSYAMHWVRQAPGKGLEWVAVTWFDVSKKDYADSVKGRFTISRDNSKNTLYLQMNSLRAEDTAVYYCARNLIRYSVSYFPVHGMDVWGQGTTVTVSS VL: DIVMTQSPLSLPVTPGEPASISCRSSQSLLHTYGYNVLDWYLQRPGQSPQLLISLGSYRASGVPDRFSGSGSGTDFTLKISRVEAEDVGVYYCMQALHPFTFGGGTKVEIK	–	10 fold
